Changes are numbered by the printed parent chain. In names and notes the source's numbering stands. Where two headings read alike, the source gives them in different places.
B1: 6299 (antibody, V domains shown)
VH: QVQLVQSGAEVKKPGSSVKVSCKASGGTLSGYAISWVRQAPGQGLEWMGNIIPGFGTANYAQKSQGRVTITADESTSTAYMELSSLRSEDTAVYYCARSGGTRYGMLDVWGQGTMVTVSS
VL: EIVMTQSPATLSVSPGERATLSCRASQSVGSNLAWYQQKPGQAPRLLIYGASTRATGIPARFSGSGSGTEFTLTISSLQSEDFAVYYCQQSYLWPPRTFGGGTKVEIK
notes: anti-BACE1 IgG
B2: 6289 (antibody, V domains shown)
VH: QLQLQESGPGLVKPSETLSLTCTVSGGSISSSSYYWGWIRQPPGKGLEWIGSIYRSGSTYYNPSLRSRVTISVDTSKNQFSLKLSSVTAADTAVYYCVRVGHGISYFDLWGRGTLVTVSS
VL: EIVLTQSPATLSLSPGERATLSCRASQSVSSYLAWYQQKPGQAPRLLIYDASNRATGIPARFSGSGSGTDFTLTISSLEPEDFAVYYCQQSLTWPPRTFGGGTKVEIK
notes: anti-BACE1 IgG
B3: 6290 (antibody, V domains shown)
VH: B2 VH with S52M, R55Y, Y60W, R66K, V98A, H102L, I104V
VL: B2 VL with N53K, S91V, L92Y
notes: anti-BACE1 IgG
B4: 6293 (antibody, V domains shown)
VH: B2 VH with S52M, R55Y, Y60W, V98A, I104V
VL: B2 VL with N53K, S91V, L92Y
notes: anti-BACE1 IgG
B5: 6296 (antibody, V domains shown)
VH: B2 VH with S52N, R55Y, S67G, V98A, V100L, I104Y, S105N
VL: B2 VL with Y36F, S91V, L92Y, T93V
notes: anti-BACE1 IgG
B6: 6297 (antibody, V domains shown)
VH: B2 VH with S28P, S52N, R55Y, S67G, V98A, V100L, I104Y, S105N
VL: B2 VL with Y36F, S91V, L92Y, T93V
notes: anti-BACE1 IgG
B7: 7G7 (antibody, V domains shown)
VH: QVQLQQPGSELVRPGASVKLSCKASGYTFTSYWMHWVKQRHGQGLEWIGNIYPGSGSTKYDERFKSKGTLTVDTSSSTAYMHLSSLTSEDSAVYYCTRGGYDSRAWFAYWGQGTLVTVSA
VL: DIVLTQSPASLAVSLGQRATISCRARQSVSTSSYSFMHWYRQKAGQPPKLLIKYASIQESGVPARFSGSGSGTDFTLNILPVEEEDTATYYCQHTWEIPFTFGSGTKLEIK
notes: Mouse hybridoma antibody; also called clone 7G7
B8: 1B12 (antibody, V domains shown)
VH: EVKLVESGGGLVQPGGFLKLSCATSGFTFSDYYMYWVRQTPEKRLEWVASISNGGDNTYYPDTVKGRFTISRDNAKNTLYLQMSRLKSEDTAMYYCARQGALYDGYYRGAMDYWGQGTSVTVSS
VL: QIVLTQSPAIMSASLGGRVTMTCTTSSSVPSSYFHWYQQKPGSSPKLWIYSTSNLASGVPARFSGSGSGTSYSLTISSMEAEDAATYYCHQYHRSPFTFGSGTKLEIK
notes: Mouse hybridoma antibody; also called clone 1B12
B9: 13D4 (antibody, V domains shown)
VH: QVQLQQSGAELMKPGASVKISCKAAGYTFSNYWIEWVKQRPGHGLEWIGEILPGSGSTKYNEKFKGKATFTADTSSNTAYMQLSSLTSEDSAVYYCARRGGYGYDGEFAYWGQGTLVTVSA
VL: DIQMTQTTSSLSASLGDRVTINCRAGQDITNYLNWFQQKPDGTVKLLIYYTSRLHSGVPSRFSGSGSGTDYSLTITNLEQEDIATYFCQQANTLPYTFGGGTKLEIK
notes: Mouse hybridoma antibody; also called clone 13D4
B10: 15G11 (antibody, V domains shown)
VH: QVQLQQPGAELVKPGASVKLSCKASGYTFTSYWMHWVKQRPGQGLEWIGEINPTNGRTNYIEKFKSKATLTVDKSSSTAYMQLSSLTSEDSAVYYCARGTRAYHYWGQGTSVTVSS
VL: DIQMTQSPASLSVSVGETVTITCRASDNLYSNLAWYQQKQGKSPQLLVYDATNLADGVPSRFSGSGSGTQYSLKINSLQSEDFGTYYCQHFWGTPLTFGAGTKLELK
notes: Mouse hybridoma antibody; also called clone 15G11
B11: H90A (antibody, V domains shown)
VH: EVQLVQSGAEVKKPGASVKVSCKASGYTFTSYWMHWVRQAPGQRLEWIGEINPTNGRTNYIEKFKSRATLTVDKSASTAYMELSSLRSEDTAVYYCARGTRAYHYWGQGTMVTVSS
VL: DIQMTQSPSSLSASVGDRVTITCRASDNLYSNLAWYQQKPGKSPKLLVYDATNLADGVPSRFSGSGSGTDYTLTISSLQPEDFATYYCQAFWGTPLTFGQGTKVEIK
notes: also called 15G11.v5 H90A (CDR-L3) IgG
B12: H101A (antibody, V domains shown)
VH: B11 VH with H104A
VL: B11 VL with A90H
notes: also called 15G11.v5 H101A (CDR-H3) IgG; copies: 2 + 2
B13: L96A (antibody, V domains shown)
VH: B11 VH
VL: B11 VL with A90H, L96A
notes: also called 15G11.v5 L96A (CDR-L3) IgG
B14: T94A (antibody, V domains shown)
VH: B11 VH
VL: B11 VL with A90H, T94A
notes: also called 15G11.v5 T94A (CDR-L3) IgG
B15: T97A (antibody, V domains shown)
VH: B11 VH
VL: B11 VL with A90H, T97A
notes: also called 15G11.v5 T97A (CDR-L3) IgG
B16: 8A2 (antibody, V domains shown)
VH: QVQLQQSGPELVRPGVSVKISCKGSGYTFTDYGMHWVKQSHAKSLEWIGVISPYSGRTNYNQNFKGKATMTVDKSSSTAYLELARLTSEDSAIYYCARGLSGNYVVDYWGQGTSVTVSS
VL: DIVLTQSPASLAVSLGQRATISCRASESVDSYGNSFMHWYQQKPGQPPKLLIYRASNLESGIPARFSGSGSRTDFTLTINPVEADDVATYYCQQSNEGPPTFGGGTKLEIK
notes: Mouse hybridoma antibody; also called clone 8A2
B17: 16G4 (antibody, V domains shown)
VH: B10 VH with T54S, I61N, K63T
VL: B10 VL with L29I, D50A, A51V, T85S
notes: Mouse hybridoma antibody; also called clone 16G4
B18: 10D11 (antibody, V domains shown)
VH: QVQLQQSGPELVRPGVAVKISCKGSGYKFIDYGMHWVKQSHTKSLQWIGVISPYSGKTNYSQKFKGKATMTVDKSSSTAYMELARLTSEDSAIYYCARGLSGNFVMDFWGQGTSVTVSS
VL: B16 VL with N34P, Q94H, G98D, K107R
notes: Mouse hybridoma antibody; also called clone 10D11

How the values were obtained:
[1] = target: T1, human BACE1 (R&D Systems) (human, UniProt P56817); experiment: SPR (Biacore)
T1 construct: recombinant, commercial (R&D Systems)
Method: Binding affinities of certain anti-BACE1 IgGs were measured by surface plasmon resonance (SRP) using a BIAcore™-T100 instrument. […] Association rates (kon) and dissociation rates (koff) were calculated using a simple one-to-one Langmuir binding model (BIAcore Evaluation Software version 3.2). The equilibrium dissociation constant (KD) was calculated as the ratio koff/kon.

murine BACE1 ECD [2] = target: T2, murine BACE1 ECD; experiment: Octet, pH 5.0;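 also: antibodies captured on anti-human capture sensor tips, dissociation monitored in PBS with BSA buffer, kinetics fitted with a one-to-one binding model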
T2 construct: analyte of the Octet assay (200 nM) and enzyme of the first short substrate assay
Method: (§1) Anti-BACE1 antibodies were loaded onto anti-human capture (AHC) sensors (tips) followed by 60 seconds baseline in assay buffer. […] Tips were transferred to assay buffer for 5 minutes, 30 minutes, or 120 minutes depending on the off-rate, for off-rate measurement. Assay buffer was either PBS+0.1% BSA, pH 7.5; or PBS+0.1% BSA, pH 5.0. Kinetics were analyzed using a 1:1 binding model.

human BACE1 ECD [3] = target: T3, human BACE1 ECD; experiment: Octet, pH 5.0;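 also: antibodies captured on anti-human capture sensor tips, dissociation monitored in PBS with BSA buffer, kinetics fitted with a one-to-one binding model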
T3 construct: analyte of the Octet assay (200 nM) and enzyme of the first short substrate assay; also called human BACE1 extracellular domain
Method: as §1

[4] = target: T4, BACE1 in primary mouse cortical neurons (mouse, UniProt P56818 46-501); experiment: cell-based or functional assay
murine BACE1 ECD [5] = target: T2, murine BACE1 ECD; experiment: Octet, pH 7.5;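 also: antibodies captured on anti-human capture sensor tips, dissociation monitored in PBS with BSA, Kd obtained from kinetic fit to a one-to-one binding model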
Method: as §1

human BACE1 ECD [6] = target: T3, human BACE1 ECD; experiment: Octet, pH 7.5;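 also: antibodies captured on anti-human capture sensor tips, dissociation monitored in PBS with BSA, Kd obtained from kinetic fit to a one-to-one binding model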
Method: as §1

[7] = target: T4, BACE1 in primary mouse cortical neurons; experiment: cell-based or functional assay; remark: listed apart in the source
[8] = target: T5, cyno TfR extracellular domain (analogous construct to human TfR ecd) (cynomolgus monkey, UniProt Q5RDH6 87-760 (Pongo abelii entry)); experiment: SPR, IgG
T5 construct: also called cynoTfR ecd
T5 chain: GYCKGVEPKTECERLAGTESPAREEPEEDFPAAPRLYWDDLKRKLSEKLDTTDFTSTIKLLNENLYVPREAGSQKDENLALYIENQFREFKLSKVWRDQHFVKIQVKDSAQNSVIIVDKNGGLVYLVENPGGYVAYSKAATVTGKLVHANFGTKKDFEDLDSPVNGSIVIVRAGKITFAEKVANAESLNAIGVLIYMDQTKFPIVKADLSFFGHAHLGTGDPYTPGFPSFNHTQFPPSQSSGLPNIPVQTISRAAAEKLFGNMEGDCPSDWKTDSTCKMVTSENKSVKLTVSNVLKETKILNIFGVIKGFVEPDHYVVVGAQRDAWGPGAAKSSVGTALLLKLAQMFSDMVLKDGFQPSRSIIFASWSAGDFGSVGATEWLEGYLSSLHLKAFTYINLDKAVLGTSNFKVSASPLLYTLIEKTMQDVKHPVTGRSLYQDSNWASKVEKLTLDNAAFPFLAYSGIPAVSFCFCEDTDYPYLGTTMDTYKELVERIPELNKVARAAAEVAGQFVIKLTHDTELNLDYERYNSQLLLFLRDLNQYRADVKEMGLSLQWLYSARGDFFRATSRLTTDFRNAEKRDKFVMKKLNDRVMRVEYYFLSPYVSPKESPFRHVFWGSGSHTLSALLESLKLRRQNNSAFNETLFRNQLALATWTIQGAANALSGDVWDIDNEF
Method: (§2) Antibody affinities were measured using surface plasmon resonance (“SPR”) (Biacore™, GE Healthcare). Anti-His antibody (Qiagen) was coupled onto four different flow cells of a BIACORE™ CM5 sensor chip (Biacore, Inc., Piscataway, N.J.) at between 6000 and 8000 RU. Immobilization was achieved by random coupling through amino groups using a protocol provided by the manufacturer. 10×HBS-P (Biacore, Inc., Piscataway, N.J.) was diluted in water and served as the dilution and running buffer. Purified human or cyno TfR was captured, followed by a 3-fold dilution series of IgG or Fab that was injected at a flow rate of 30 ml/min using the single cycle kinetics method. Affinity constants were determined using a simple 1:1 Langmuir binding model or using a steady state model when kₒₙ or koff was beyond the detection limit. The equilibrium dissociation constant (KD) was calculated as the ratio of association rate constant (kₒₙ) and dissociation rate constant (koff).

[9] = target: T6, human TfR extracellular domain with N-terminal His tag (human, UniProt P02786 89-760); experiment: SPR, IgG
T6 construct: Biotinylated in some assays; also called huTfR; HuTfR
Method: as §2

[10] = target: T5, cyno TfR extracellular domain …; experiment: SPR, IgG
[11] = target: T6, human TfR extracellular domain with …; experiment: SPR, IgG; remark: listed apart in the source
[12] = target: T5, cyno TfR extracellular domain …; experiment: ELISA, IgG
[13] = target: T6, human TfR extracellular domain with …; experiment: ELISA, IgG

T3 sequence (single chain, as listed by the source limits assumed): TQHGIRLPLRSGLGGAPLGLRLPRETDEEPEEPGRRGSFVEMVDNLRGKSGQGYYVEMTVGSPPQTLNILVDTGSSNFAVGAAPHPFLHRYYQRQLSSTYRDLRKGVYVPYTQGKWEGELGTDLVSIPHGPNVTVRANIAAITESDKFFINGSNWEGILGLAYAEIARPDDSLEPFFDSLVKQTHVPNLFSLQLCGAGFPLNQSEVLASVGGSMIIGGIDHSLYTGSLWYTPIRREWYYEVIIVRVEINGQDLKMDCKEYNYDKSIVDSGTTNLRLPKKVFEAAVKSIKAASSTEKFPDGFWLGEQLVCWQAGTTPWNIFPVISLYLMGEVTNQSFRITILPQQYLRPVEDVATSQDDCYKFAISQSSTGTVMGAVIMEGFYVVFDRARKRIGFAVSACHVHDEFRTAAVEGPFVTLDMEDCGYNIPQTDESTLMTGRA
T6 sequence (P02786 89-760 G142S): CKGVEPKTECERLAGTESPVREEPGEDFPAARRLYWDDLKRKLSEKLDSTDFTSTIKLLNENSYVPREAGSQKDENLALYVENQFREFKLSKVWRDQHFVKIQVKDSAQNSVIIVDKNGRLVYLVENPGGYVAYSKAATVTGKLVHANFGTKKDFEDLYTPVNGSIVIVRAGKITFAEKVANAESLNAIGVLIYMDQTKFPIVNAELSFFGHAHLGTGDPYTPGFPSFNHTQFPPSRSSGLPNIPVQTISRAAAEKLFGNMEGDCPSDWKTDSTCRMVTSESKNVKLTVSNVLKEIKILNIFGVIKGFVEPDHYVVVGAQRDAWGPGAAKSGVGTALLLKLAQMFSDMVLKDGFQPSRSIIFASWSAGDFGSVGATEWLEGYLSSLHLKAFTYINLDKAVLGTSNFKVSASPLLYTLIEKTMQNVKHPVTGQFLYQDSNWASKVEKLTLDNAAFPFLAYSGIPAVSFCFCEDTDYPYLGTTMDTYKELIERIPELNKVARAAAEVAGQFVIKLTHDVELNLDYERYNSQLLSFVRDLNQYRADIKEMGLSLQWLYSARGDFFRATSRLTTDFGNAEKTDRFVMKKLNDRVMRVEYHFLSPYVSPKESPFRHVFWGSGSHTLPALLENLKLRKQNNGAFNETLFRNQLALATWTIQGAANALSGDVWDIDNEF
T2 sequence (single chain, as listed by the source limits assumed): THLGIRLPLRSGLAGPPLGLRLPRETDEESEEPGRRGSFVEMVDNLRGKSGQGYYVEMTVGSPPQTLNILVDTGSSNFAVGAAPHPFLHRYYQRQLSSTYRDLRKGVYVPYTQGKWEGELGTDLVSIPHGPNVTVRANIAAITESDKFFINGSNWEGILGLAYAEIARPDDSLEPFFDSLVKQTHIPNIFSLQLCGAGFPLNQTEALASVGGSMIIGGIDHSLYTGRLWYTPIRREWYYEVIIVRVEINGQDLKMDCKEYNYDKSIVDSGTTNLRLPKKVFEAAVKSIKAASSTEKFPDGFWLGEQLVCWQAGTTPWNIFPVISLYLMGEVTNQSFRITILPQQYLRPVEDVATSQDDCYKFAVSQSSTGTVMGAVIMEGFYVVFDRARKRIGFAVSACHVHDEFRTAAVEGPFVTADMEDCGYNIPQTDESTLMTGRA
T4 sequence (P56818 46-501): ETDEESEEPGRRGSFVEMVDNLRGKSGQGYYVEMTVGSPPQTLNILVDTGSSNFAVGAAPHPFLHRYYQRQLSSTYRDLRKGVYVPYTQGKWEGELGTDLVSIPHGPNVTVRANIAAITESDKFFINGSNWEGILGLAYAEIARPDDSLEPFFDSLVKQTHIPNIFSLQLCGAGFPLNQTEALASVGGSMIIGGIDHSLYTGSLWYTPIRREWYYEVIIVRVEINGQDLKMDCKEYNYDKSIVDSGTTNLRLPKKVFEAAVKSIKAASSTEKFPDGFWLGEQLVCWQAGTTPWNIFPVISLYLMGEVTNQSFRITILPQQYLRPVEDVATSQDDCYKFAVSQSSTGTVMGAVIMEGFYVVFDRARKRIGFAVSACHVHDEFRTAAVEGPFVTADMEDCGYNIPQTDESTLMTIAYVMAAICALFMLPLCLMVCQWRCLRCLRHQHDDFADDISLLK
T1 sequence (P56817 22-457 limits assumed): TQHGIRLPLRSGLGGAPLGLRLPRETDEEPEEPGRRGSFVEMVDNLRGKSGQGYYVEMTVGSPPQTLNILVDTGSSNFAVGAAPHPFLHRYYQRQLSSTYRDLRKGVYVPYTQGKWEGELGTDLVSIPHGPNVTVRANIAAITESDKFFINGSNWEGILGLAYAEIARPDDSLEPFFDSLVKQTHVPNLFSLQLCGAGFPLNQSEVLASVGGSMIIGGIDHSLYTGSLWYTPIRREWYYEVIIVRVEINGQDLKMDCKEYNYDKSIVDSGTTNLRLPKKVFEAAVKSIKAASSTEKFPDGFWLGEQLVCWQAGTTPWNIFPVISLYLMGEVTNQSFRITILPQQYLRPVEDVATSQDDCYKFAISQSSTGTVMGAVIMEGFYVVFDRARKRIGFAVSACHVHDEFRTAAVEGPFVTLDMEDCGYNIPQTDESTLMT

| Binder | Kd [1] [nM] | Kd (murine BACE1 ECD [2]) [nM] | Kd (human BACE1 ECD [3]) [nM] | Kd (murine BACE1 ECD [5]) [nM] | Kd (human BACE1 ECD [6]) [nM] | Kd [8] [nM] | Kd [9] [nM] | other results |
| --- | --- | --- | --- | --- | --- | --- | --- | --- |
| B1 | 5.82 | < 0.46 | < 0.28 | < 0.41 | < 0.41 | – | – | IC50, Abeta x-40 in mouse cortical neurons [4]: 10.4 nM; maximal % inhibition of Abeta x-40 [4]: 70% |
| B2 | 7.37 | 0.38 | 0.39 | 0.28 | 0.37 | – | – | IC50, Abeta x-40 in mouse cortical neurons [7]: 5.21 nM; maximal % inhibition of Abeta x-40 [7]: 74% |
| B3 | 3.19 | < 0.27 | < 0.23 | < 0.27 | < 0.26 | – | – | IC50, Abeta x-40 in mouse cortical neurons [7]: 3.17 nM; maximal % inhibition of Abeta x-40 [7]: 63% |
| B4 | 8.26 | < 0.28 | < 0.28 | < 0.28 | < 0.28 | – | – | IC50, Abeta x-40 in mouse cortical neurons [7]: 0.88 nM; maximal % inhibition of Abeta x-40 [7]: 75% |
| B5 | 3.29 | < 0.24 | 0.2 | < 0.24 | 0.28 | – | – | IC50, Abeta x-40 in mouse cortical neurons [7]: 7.92 nM; maximal % inhibition of Abeta x-40 [7]: 62% |
| B6 | 3.87 | 0.32 | 0.28 | < 0.26 | 0.4 | – | – | IC50, Abeta x-40 in mouse cortical neurons [7]: 3.89 nM; maximal % inhibition of Abeta x-40 [7]: 63% |
| B7 | – | – | – | – | – | 262 | 45.7 | – |
| B8 | – | – | – | – | – | 43.4 | 2.03 | – |
| B9 | – | – | – | – | – | 8.47 | 9.5 | – |
| B10 | – | – | – | – | – | 2.6 | 0.992 | Kd [10]: 2.6 nM; Kd [11]: 0.992 nM |
| B11 | – | – | – | – | – | – | – | EC50 [12]: 0.024 µg/mL; EC50 [13]: 0.013 µg/mL |
| B12 | – | – | – | – | – | – | – | EC50 [12]: 0.0216 µg/mL; EC50 [13]: 0.0142 µg/mL |
| B13 | – | – | – | – | – | – | – | EC50 [12]: 0.018 µg/mL; EC50 [13]: 0.0099 µg/mL |
| B14 | – | – | – | – | – | – | – | EC50 [12]: 0.0293 µg/mL; EC50 [13]: 0.0168 µg/mL |
| B15 | – | – | – | – | – | – | – | EC50 [12]: 0.0157 µg/mL; EC50 [13]: 0.0134 µg/mL |
| B16 | – | – | – | – | – | 0.904 | 0.179 | – |
| B17 | – | – | – | – | – | 22.4 | 3.4 | – |
| B18 | – | – | – | – | – | 89.9 | 2.08 | – |
